In patent US9708383 (Novo Nordisk, dated 2017):
*1 amine or outer side, *2 acyl side, *3 side chain or, on linkers, in order; H or OH if unused. Where no end group is shown, it is not given here. Side-chain parts run from the residue outwards. [ ]: non-standard residue; d: D form. The star is where a group is joined. 9‑(4-carboxyphenoxy)nonanoyl = O=C(O)c1ccc(OCCCCCCCCC(=O)*)cc1; Decanoyl(10-(4-HOOC-PhO)) = O=C(O)c1ccc(OCCCCCCCCCC(=O)*)cc1; γGlu = O=C(O)[C@H](CCC(=O)[*:2])N[*:1]; Desaminohistidyl = O=C(CCc1c[nH]cn1)*; Hexanoyl(6-Ph) = O=C(CCCCCc1ccccc1)*; C12 diacid = O=C(O)CCCCCCCCCCC(=O)*; 13‑carboxytridecanoyl = C14 diacid; Butanoyl(4-Ph) = O=C(CCCc1ccccc1)*; 12Ado = NCCCCCCCCCCCC(=O)O; AEEA = NCCOCCOCC(=O)O; Aib = CC(C)(N)C(=O)O; Aoc = NCCCCCCCC(=O)O

B1: GLP-1 derivative of Example 15: [Lys8,Glu22,Arg26,Lys31,Gly34]-GLP-1-(7-34)-peptide (peptide)
peptide: HAEGTFTSDVSK([AEEA-AEEA-γGlu-13‑carboxytridecanoyl])YLEEQAAREFIAK([AEEA-AEEA-γGlu-13‑carboxytridecanoyl])LVG
notes: Name prints Lys8, evidently Lys18 (acylation at Nε18)
B2: GLP-1 derivative of Example 132: [Aib8,Lys8,Glu22,Gln34]-GLP-1-(7-37)-peptide amide (peptide)
peptide: H[Aib]EGTFTSDVSK([AEEA-AEEA-γGlu-Decanoyl(10-(4-HOOC-PhO))])YLEEQAAK([AEEA-AEEA-γGlu-Decanoyl(10-(4-HOOC-PhO))])EFIAWLVQGRG-NH2
modifications: N-terminus assumed
SMILES: CC[C@H](C)[C@H](NC(=O)[C@H](Cc1ccccc1)NC(=O)[C@H](CCC(=O)O)NC(=O)[C@H](CCCCNC(=O)COCCOCCNC(=O)COCCOCCNC(=O)CC[C@H](NC(=O)CCCCCCCCCOc1ccc(C(=O)O)cc1)C(=O)O)NC(=O)[C@H](C)NC(=O)[C@H](C)NC(=O)[C@H](CCC(N)=O)NC(=O)[C@H](CCC(=O)O)NC(=O)[C@H](CCC(=O)O)NC(=O)[C@H](CC(C)C)NC(=O)[C@H](Cc1ccc(O)cc1)NC(=O)[C@H](CCCCNC(=O)COCCOCCNC(=O)COCCOCCNC(=O)CC[C@H](NC(=O)CCCCCCCCCOc1ccc(C(=O)O)cc1)C(=O)O)NC(=O)[C@H](CO)NC(=O)[C@@H](NC(=O)[C@H](CC(=O)O)NC(=O)[C@H](CO)NC(=O)[C@@H](NC(=O)[C@H](Cc1ccccc1)NC(=O)[C@@H](NC(=O)CNC(=O)[C@H](CCC(=O)O)NC(=O)C(C)(C)NC(=O)[C@@H](N)Cc1c[nH]cn1)[C@@H](C)O)[C@@H](C)O)C(C)C)C(=O)N[C@@H](C)C(=O)N[C@@H](Cc1c[nH]c2ccccc12)C(=O)N[C@@H](CC(C)C)C(=O)N[C@H](C(=O)N[C@@H](CCC(N)=O)C(=O)NCC(=O)N[C@@H](CCCNC(=N)N)C(=O)NCC(N)=O)C(C)C
notes: Name prints Lys8, evidently Lys18

Tests used:
[1] = molecular target: T1, human GLP-1 receptor (human, UniProt P43220 24-463); test: SPA, 2.0% vs 0.005% HSA
T1 construct: whole, on cells; Used as purified membranes of the transfected hamster cells, not whole cells; also called hGLP-1

[2] = molecular target: T1, human GLP-1 receptor; test: SPA, displacement of 125I-GLP-1(7-36)NH2, 0.005% HSA

Row | Binder | ratio IC50 high HSA/IC50 low HSA [1] | IC50 [2] [nM]
1 | HAEGTFTSDVSK([AEEA-AEEA-γGlu-13‑carboxytridecanoyl])YLEEQAVREFIAK([AEEA-AEEA-γGlu-13‑carboxytridecanoyl])LVG [GLP-1 derivative of Example 10: [Lys18,Glu22,Val25,Arg26,Lys31,Gly34]-GLP-1-(7-34)-peptide] | > 1 | < 1000
2 | HSEGTFTSDVSK([AEEA-AEEA-γGlu-13‑carboxytridecanoyl])YLEEQAVREFIAK([AEEA-AEEA-γGlu-13‑carboxytridecanoyl])LVG [GLP-1 derivative of Example 14: [Ser8,Lys18,Glu22,Val25,Arg26,Lys31,Gly34]-GLP-1-(7-34)-peptide] | > 1 | < 1000
3 | B1 | > 1 | < 1000
4 | HSEGTFTSDVSK([AEEA-AEEA-γGlu-C12 diacid])YLEEQAVREFIAK([AEEA-AEEA-γGlu-C12 diacid])LVG [GLP-1 derivative of Example 25: [Ser8,Lys18,Glu22,Val25,Arg26,Lys31,Gly34]-GLP-1-(7-34)-peptide] | > 1 | < 1000
5 | HAEGTFTSDVSK([AEEA-AEEA-13‑carboxytridecanoyl])YLEEQAARK([AEEA-AEEA-13‑carboxytridecanoyl])FIAHLVG [GLP-1 derivative of Example 28: [Lys18,Glu22,Arg26,Lys27,His31,Gly34]-GLP-1-(7-34)-peptide] | > 1 | < 1000
6 | HAEGTFTSDVSK([γGlu-AEEA-AEEA-13‑carboxytridecanoyl])YLEEQAARK([γGlu-AEEA-AEEA-13‑carboxytridecanoyl])FIAHLVG [GLP-1 derivative of Example 29: [Lys18,Glu22,Arg26,Lys27,His31,Gly34]-GLP-1-(7-34)-peptide] | > 1 | < 1000
7 | HAEGTFTSDVSK([AEEA-AEEA-γGlu-Decanoyl(10-(4-HOOC-PhO))])YLEEQAARK([AEEA-AEEA-γGlu-Decanoyl(10-(4-HOOC-PhO))])FIAHLVG [GLP-1 derivative of Example 30: [Lys18,Glu22,Arg26,Lys27,His31,Gly34]-GLP-1-(7-34)-peptide] | > 1 | < 1000
8 | HAEGTFTSDVSK([γGlu-AEEA-AEEA-Decanoyl(10-(4-HOOC-PhO))])YLEEQAARK([γGlu-AEEA-AEEA-Decanoyl(10-(4-HOOC-PhO))])FIAHLVG [GLP-1 derivative of Example 49: [Lys18,Glu22,Arg26,Lys27,His31,Gly34]-GLP-1-(7-34)-peptide] | > 1 | < 1000
9 | HAEGTFTSDVSK([AEEA-AEEA-γGlu-13‑carboxytridecanoyl])YLEEQAVREFIK([AEEA-AEEA-γGlu-13‑carboxytridecanoyl])WLVG [GLP-1 derivative of Example 50: [Lys18,Glu22,Val25,Arg26,Lys30,Gly34]-GLP-1-(7-34)-peptide] | > 1 | < 1000
10 | HAEGTFTSDVSK([AEEA-AEEA-γGlu-13‑carboxytridecanoyl])YLEEQAVREFIK([AEEA-AEEA-γGlu-13‑carboxytridecanoyl])HLVG [GLP-1 derivative of Example 52: [Lys18,Glu22,Val25,Arg26,Lys30,His31,Gly34]-GLP-1-(7-34)-peptide] | > 1 | < 1000
11 | HAEGTFTSDVSK([AEEA-AEEA-γGlu-13‑carboxytridecanoyl])YLEEQAVRLFIK([AEEA-AEEA-γGlu-13‑carboxytridecanoyl])WLVG [GLP-1 derivative of Example 53: [Lys18,Glu22,Val25,Arg26,Leu27,Lys30,Gly34]-GLP-1-(7-34)-peptide] | > 1 | < 1000
12 | HAEGTFTSDVSK([γGlu-AEEA-γGlu-13‑carboxytridecanoyl])YLEEQAARK([γGlu-AEEA-γGlu-13‑carboxytridecanoyl])FIAHLVG [GLP-1 derivative of Example 59: [Lys18,Glu22,Arg26,Lys27,His31,Gly34]-GLP-1-(7-34)-peptide] | > 1 | < 1000
13 | HAEGTFTSDVSK([AEEA-AEEA-γGlu-9‑(4-carboxyphenoxy)nonanoyl])YLEEQAARK([AEEA-AEEA-γGlu-9‑(4-carboxyphenoxy)nonanoyl])FIAHLVG [GLP-1 derivative of Example 64: [Lys18,Glu22,Arg26,Lys27,His31,Gly34]-GLP-1-(7-34)-peptide] | > 1 | < 1000
14 | HAEGTFTSDVSK([AEEA-AEEA-γGlu-C12 diacid])YLEEQAVREFIAHLVK([AEEA-AEEA-γGlu-C12 diacid]) [GLP-1 derivative of Example 66: [Lys18,Glu22,Val25,Arg26,His31]-GLP-1-(7-34)-peptide] | > 1 | < 1000
15 | H[Aib]EGTFTSDVSK([AEEA-AEEA-γGlu-Aoc-γGlu-Butanoyl(4-Ph)])YLEEQAAK([AEEA-AEEA-γGlu-Aoc-γGlu-Butanoyl(4-Ph)])EFIAWLVQGRG [GLP-1 derivative of Example 109: [Aib8,Lys18,Glu22,Gln34]-GLP-1-(7-37)-peptide] | > 1 | < 1000
16 | H[Aib]EGTFTSDVSK([AEEA-AEEA-γGlu-12Ado-γGlu-Butanoyl(4-Ph)])YLEEQAAK([AEEA-AEEA-γGlu-12Ado-γGlu-Butanoyl(4-Ph)])EFIAWLVQGRG [GLP-1 derivative of Example 113: [Aib8,Lys18,Glu22,Gln34]-GLP-1-(7-37)-peptide] | > 1 | < 1000
17 | HAEGTFTSDVSK([γGlu-AEEA-AEEA-13‑carboxytridecanoyl])YLEEQAAREFIAK([γGlu-AEEA-AEEA-13‑carboxytridecanoyl])LVRGRG [GLP-1 derivative of Example 116: [Lys18,Glu22,Arg26,Lys31,Arg34]-GLP-1-(7-37)-peptide] | > 1 | < 1000
18 | HAEGTFTSDVSK([AEEA-AEEA-γGlu-C12 diacid])YLEEQAVREFIAK([AEEA-AEEA-γGlu-C12 diacid])LVG [GLP-1 derivative of Example 11: [Lys18,Glu22,Val25,Arg26,Lys31,Gly34]-GLP-1-(7-34)-peptide] | > 1 | < 1000
19 | H[Aib]EGTFTSDVSK([AEEA-AEEA-γGlu-4‑(4-chlorophenyl)butanoyl])YLEEQAAK([AEEA-AEEA-γGlu-4‑(4-chlorophenyl)butanoyl])EFIAWLVQGRG [GLP-1 derivative of Example 121: [Aib8,Lys18,Glu22,Gln34]-GLP-1-(7-37)-peptide] | > 1 | < 1000
20 | H[Aib]EGTFTSDVSK([AEEA-AEEA-γGlu-4‑(4-nitrophenyl)butanoyl])YLEEQAAK([AEEA-AEEA-γGlu-4‑(4-nitrophenyl)butanoyl])EFIAWLVQGRG [GLP-1 derivative of Example 122: [Aib8,Lys18,Glu22,Gln34]-GLP-1-(7-37)-peptide] | > 1 | < 1000
21 | H[Aib]EGTFTSDVSK([AEEA-AEEA-γGlu-Hexanoyl(6-Ph)])YLEEQAAK([AEEA-AEEA-γGlu-Hexanoyl(6-Ph)])EFIAWLVQGRG [GLP-1 derivative of Example 123: [Aib8,Lys18,Glu22,Gln34]-GLP-1-(7-37)-peptide] | > 1 | < 1000
22 | H[Aib]EGTFTSDVSK([AEEA-AEEA-γGlu-Aoc-γGlu-Hexanoyl(6-Ph)])YLEEQAAK([AEEA-AEEA-γGlu-Aoc-γGlu-Hexanoyl(6-Ph)])EFIAWLVQGRG [GLP-1 derivative of Example 127: [Aib8,Lys18,Glu22,Gln34]-GLP-1-(7-37)-peptide] | > 1 | < 1000
23 | H[Aib]EGTFTSDVSK([AEEA-AEEA-γGlu-12Ado-γGlu-2‑phenylacetyl])YLEEQAAK([AEEA-AEEA-γGlu-12Ado-γGlu-2‑phenylacetyl])EFIAWLVQGRG [GLP-1 derivative of Example 128: [Aib8,Lys18,Glu22,Gln34]-GLP-1-(7-37)-peptide] | > 1 | < 1000
24 | [Desaminohistidyl]AEGTFTSDVSK([AEEA-AEEA-γGlu-13‑carboxytridecanoyl])YLEEQAVREFIAK([AEEA-AEEA-γGlu-13‑carboxytridecanoyl])LVG [GLP-1 derivative of Example 12: [Imp7,Lys18,Glu22,Val25,Arg26,Lys31,Gly34]-GLP-1-(7-34)-peptide] | > 1 | < 1000
25 | B2 | > 1 | < 1000
26 | [Desaminohistidyl]AEGTFTSDVSK([AEEA-AEEA-γGlu-Decanoyl(10-(4-HOOC-PhO))])YLEEQAAK([AEEA-AEEA-γGlu-Decanoyl(10-(4-HOOC-PhO))])EFIAWLVQGRG [GLP-1 derivative of Example 136: [Imp7,Lys18,Glu22,Gln34]-GLP-1-(7-37)-peptide] | > 1 | < 1000
27 | [Desaminohistidyl]AEGTFTSDVSK([AEEA-AEEA-γGlu-Decanoyl(10-(4-HOOC-PhO))])YLEEQAAREFIAWLVRGRK([AEEA-AEEA-γGlu-Decanoyl(10-(4-HOOC-PhO))]) [GLP-1 derivative of Example 4: [Imp7,Lys18,Glu22,Arg26,Arg34,Lys37]-GLP-1-(7-37)-peptide] | > 1 | < 1000
